{
  "source": "paper PMC10397247",
  "assay_in_all_cases": "two-hybrid library CC0;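 note: natural log of median RNA to DNA barcode read ratio; higher means stronger binding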",
  "conditions_in_all_cases": "mean of both orientations",
  "key": {"O3": {"target": "T1, O3", "T1 chain": "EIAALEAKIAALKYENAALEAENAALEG"}, "O16": {"target": "T2, O16", "T2 chain": "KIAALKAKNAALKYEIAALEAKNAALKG"}, "O5": {"target": "T3, O5", "T3 chain": "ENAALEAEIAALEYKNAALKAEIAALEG"}, "O4": {"target": "T4, O4", "T4 chain": "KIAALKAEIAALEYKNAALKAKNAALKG"}, "O6": {"target": "T5, O6", "T5 chain": "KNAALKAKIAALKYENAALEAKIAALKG"}, "O9": {"target": "T6, O9", "T6 chain": "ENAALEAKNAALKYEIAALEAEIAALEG"}, "O15": {"target": "T7, O15", "T7 chain": "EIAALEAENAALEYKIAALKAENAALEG"}, "O8": {"target": "T8, O8", "T8 chain": "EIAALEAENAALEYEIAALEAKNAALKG"}, "O14": {"target": "T9, O14", "T9 chain": "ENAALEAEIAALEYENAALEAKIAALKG"}, "O2": {"target": "T10, O2", "T10 chain": "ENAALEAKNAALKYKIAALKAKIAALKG"}, "O7": {"target": "T11, O7", "T11 chain": "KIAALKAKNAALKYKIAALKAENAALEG"}, "O13": {"target": "T12, O13", "T12 chain": "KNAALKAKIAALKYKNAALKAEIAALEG"}},
  "data": [
    {"binder": "KNAALKAKIAALKYKNAALKAEIAALEG", "note": "[O13]", "values": [
      {"measurement": "interaction score", "setting": "O3", "result": -2.81},
      {"measurement": "interaction score", "setting": "O16", "result": -2.87},
      {"measurement": "interaction score", "setting": "O5", "result": -2.45},
      {"measurement": "interaction score", "setting": "O4", "result": -2.72},
      {"measurement": "interaction score", "setting": "O6", "result": -1.12},
      {"measurement": "interaction score", "setting": "O9", "result": -2.75},
      {"measurement": "interaction score", "setting": "O15", "result": -0.499},
      {"measurement": "interaction score", "setting": "O8", "result": -1.5},
      {"measurement": "interaction score", "setting": "O14", "result": 1.21},
      {"measurement": "interaction score", "setting": "O2", "result": -2.82},
      {"measurement": "interaction score", "setting": "O7", "result": -2.81},
      {"measurement": "interaction score", "setting": "O13", "result": -2.86}
    ]}
  ]
}
